The numbers were not newly measured in publication PMC4547496, which cites them from elsewhere.

For data set [1], the target named is BAG family nucleotide exchange factor (Homo sapiens) (UniProt Q99933). The data set is described as follows: FCPIA.
The next data set has as its target Gαo (Homo sapiens) (UniProt P09471). The data set is described as follows: FCPIA.
UniProt P09471, sequence (P09471 2-354): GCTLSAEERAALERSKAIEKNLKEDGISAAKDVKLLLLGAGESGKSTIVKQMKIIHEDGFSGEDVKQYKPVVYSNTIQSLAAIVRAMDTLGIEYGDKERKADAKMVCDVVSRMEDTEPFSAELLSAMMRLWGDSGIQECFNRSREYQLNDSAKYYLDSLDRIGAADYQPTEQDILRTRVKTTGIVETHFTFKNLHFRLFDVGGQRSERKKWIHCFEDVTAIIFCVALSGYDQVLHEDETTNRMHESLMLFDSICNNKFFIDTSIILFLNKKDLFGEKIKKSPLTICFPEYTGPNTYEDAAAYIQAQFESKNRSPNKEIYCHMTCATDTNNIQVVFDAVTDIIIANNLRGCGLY

UniProt Q99933, sequence (Q99933 whole entry): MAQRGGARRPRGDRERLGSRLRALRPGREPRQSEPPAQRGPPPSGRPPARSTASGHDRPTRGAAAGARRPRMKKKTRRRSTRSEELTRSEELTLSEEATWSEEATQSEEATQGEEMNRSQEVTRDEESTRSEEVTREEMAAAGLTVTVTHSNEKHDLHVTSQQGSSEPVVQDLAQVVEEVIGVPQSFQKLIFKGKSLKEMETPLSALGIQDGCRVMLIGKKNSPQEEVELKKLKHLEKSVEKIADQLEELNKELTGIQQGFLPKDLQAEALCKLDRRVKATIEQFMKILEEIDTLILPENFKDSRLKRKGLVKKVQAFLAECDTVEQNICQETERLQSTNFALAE

Regarding Hsp70 (from UniProt P0DMV8), the Kd in data set [1] is 1000 nM.

As to RGS4 (from UniProt P49798), the Kd in the data set with Gαo (Homo sapiens) was 4 nM.

A word on the Kd: it is a measure of binding affinity in units of concentration.
